Experimental data as given in US20160257755A1 (TRACON PHARMACEUTICALS, published 2016).

Columns and labels:
[1] = biological target: T1, recombinant endoglin (BIAcore analyte, Example 2) (UniProt P17813 26-586, limits assumed); test: SPR (BIAcore), antibody captured on protein A, recombinant endoglin as analyte
T1 sequence (looked up): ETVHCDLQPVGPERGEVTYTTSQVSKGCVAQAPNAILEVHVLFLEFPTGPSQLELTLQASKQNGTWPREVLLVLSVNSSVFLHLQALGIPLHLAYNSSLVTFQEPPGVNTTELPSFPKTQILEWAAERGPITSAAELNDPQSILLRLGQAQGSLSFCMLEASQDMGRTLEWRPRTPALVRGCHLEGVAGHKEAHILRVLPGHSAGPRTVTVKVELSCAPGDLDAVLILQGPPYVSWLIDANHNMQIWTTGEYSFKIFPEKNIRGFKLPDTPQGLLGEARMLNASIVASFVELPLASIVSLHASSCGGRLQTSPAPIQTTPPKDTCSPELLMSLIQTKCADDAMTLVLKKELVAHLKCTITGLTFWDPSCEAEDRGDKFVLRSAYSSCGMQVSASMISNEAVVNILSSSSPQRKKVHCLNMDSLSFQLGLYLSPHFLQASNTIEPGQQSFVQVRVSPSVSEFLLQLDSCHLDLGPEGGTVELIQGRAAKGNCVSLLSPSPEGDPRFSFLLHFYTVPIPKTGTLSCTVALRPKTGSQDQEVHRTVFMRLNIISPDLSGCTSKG
Method: Affinity of antibodies can be assessed using, for example, BIAcore analysis using standard protocols. Briefly, protein A is chemically coupled to a BIAcore CM5 chip, with the amount of protein A immobilized corresponding to 2000 RU. Subsequent steps are performed in a running buffer of 10 mM HEPES, 150 mM NaCl, 3 mM EDTA, 0.05% TWEEN, pH=7.4, at 25 degrees Celsius using a 10 Hz data collection rate. […] Start-up cycles are performed using running buffer at a flow rate of 40 μL/min, a contact time of 90 seconds and a dissociation time of 90 seconds. Sample cycles are performed using recombinant endoglin at concentrations ranging from 0 to 40 nM. Endoglin is passed over the BIAcore chip containing captured antibody at a flow rate of 40 μL/min with a contact time of 525 seconds and dissociation time of 2500 seconds. […] Regeneration of the chip is accomplished using 10 mM glycine pH=1.7. Data analysis is performed using BIAcore T100 Evaluation Software v1.1 Signals generated using BIAcore chips with different captured antibody densities are compared and data generated in the absence of recombinant endoglin are used to adjust for the intraassay blank signal. For fitting of the data, the Rₘₐₓ is allowed to float to account for variation in capture levels of each antibody in each cycle. Data from each capture density is fitted simultaneously during analysis of each antibody.

[2] = biological target: T2, mouse endoglin, R&D Systems Cat. No. 1320-EN-025 (mouse, UniProt Q63961 27-581); test: direct ELISA on coated mouse endoglin, anti-rat IgG peroxidase detection
T2 construct: Coated directly on the plate at 1 ug/ml; also called murine endoglin
T2 sequence (looked up): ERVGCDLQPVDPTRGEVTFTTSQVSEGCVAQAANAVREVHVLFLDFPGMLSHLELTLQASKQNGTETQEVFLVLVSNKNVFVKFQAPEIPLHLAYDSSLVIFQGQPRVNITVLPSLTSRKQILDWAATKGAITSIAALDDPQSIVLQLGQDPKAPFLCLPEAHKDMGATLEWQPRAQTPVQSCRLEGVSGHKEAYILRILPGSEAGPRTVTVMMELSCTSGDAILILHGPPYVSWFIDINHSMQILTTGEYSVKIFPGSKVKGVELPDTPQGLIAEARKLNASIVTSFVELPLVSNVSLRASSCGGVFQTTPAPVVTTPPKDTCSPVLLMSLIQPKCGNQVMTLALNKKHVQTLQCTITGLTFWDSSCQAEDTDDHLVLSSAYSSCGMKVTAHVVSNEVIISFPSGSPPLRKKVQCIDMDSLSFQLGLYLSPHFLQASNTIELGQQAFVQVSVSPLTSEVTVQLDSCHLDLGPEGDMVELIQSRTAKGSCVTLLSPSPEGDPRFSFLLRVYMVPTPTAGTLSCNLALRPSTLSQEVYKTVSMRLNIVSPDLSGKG
Method: The following day the plate was washed three times with PBST before blocking with PBST/3% Marvel at room temperature for 1 hour. […] Binding of the antibodies was detected via anti-rat IgG peroxidase (Sigma, Cat. No. A9037) and TMB single solution substrate (Invitrogen, Cat. No. 00-2023). The reaction was stopped by adding 3 M HCl and OD450 nm values were measured on a Dynex MRX TCII plate reader.

[3] = biological target: T2, mouse endoglin, R&D Systems Cat. No. …; test: competition ELISA on coated mouse endoglin, competitor biotinylated M1043 (40 ng/ml)
Method: Nunc Immuno MaxiSorp 96 well flat bottom plates (Fisher Cat. No. DIS-971-030J) were coated with mouse endoglin (R&D Systems, Cat. No. 1320-EN-025) at 1μg/ml in PBS overnight at 4° C. The following day the plate was washed three times with PBST before blocking with PBST/3% Marvel at room temperature for 1 hour. […] Binding of the biotinylated antibody was detected via streptavidin-HRP (Sigma, Cat. No. 55512) and TMB substrate (Sigma, Cat. No. T0440). OD450 nm values were measured on a Dynex MRX TCII plate reader.

[4] = biological target: T3, human CD105 (endoglin), R&D Systems Cat. No. 1097-EN (human, UniProt P17813 26-586); test: competition ELISA on captured human CD105, human BMP9 against biotinylated TRC205 (55 ng/ml); human BMP9 as competitor, in nM
T3 construct: Bought protein, captured on the plate by mouse anti-human CD105 (Southern Biotechnologies 9811-01); also called human endoglin
T3 sequence (looked up): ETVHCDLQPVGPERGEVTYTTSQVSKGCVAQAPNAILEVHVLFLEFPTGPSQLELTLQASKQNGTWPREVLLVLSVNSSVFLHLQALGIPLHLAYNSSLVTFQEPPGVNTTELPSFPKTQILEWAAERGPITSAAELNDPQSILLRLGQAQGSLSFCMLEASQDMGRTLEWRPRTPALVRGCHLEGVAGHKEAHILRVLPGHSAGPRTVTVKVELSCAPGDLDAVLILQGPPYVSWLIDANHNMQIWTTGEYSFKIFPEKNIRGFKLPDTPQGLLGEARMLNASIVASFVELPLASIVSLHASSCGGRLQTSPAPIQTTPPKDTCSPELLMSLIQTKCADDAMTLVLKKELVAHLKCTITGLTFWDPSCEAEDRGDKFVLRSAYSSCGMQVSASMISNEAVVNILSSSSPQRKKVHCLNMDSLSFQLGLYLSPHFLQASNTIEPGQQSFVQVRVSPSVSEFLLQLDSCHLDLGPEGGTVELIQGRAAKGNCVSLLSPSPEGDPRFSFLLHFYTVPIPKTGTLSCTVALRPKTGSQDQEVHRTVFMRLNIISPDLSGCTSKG
Method: (§1) OD450 nm values were measured on a Dynex MRX TCII plate reader.

[5] = biological target: T3, human CD105 (endoglin), R&D Systems …; test: direct ELISA, biotinylated TRC205 on human CD105 captured by anti-CD105, streptavidin-HRP detection
Method: as §1

[6] = biological target: T3, human CD105 (endoglin), R&D Systems …; test: competition ELISA on captured human CD105, unlabelled TRC205 against biotinylated TRC205 (55 ng/ml); unlabelled TRC205 as competitor, in nM
Method: as §1

[7] = biological target: T3, human CD105 (endoglin), R&D Systems …; test: competition ELISA on captured human CD105 against biotinylated chimeric anti-CD105 (6.25 ng/ml); streptavidin-HRP/TMB, absorbance at 450 nm
Method: FIGS. 6A-6F. Anti-CD105 competition ELISA with humanized and humanized/deimmunized antibodies. […] Binding was detected via streptavidin-HRP and TMB substrate. Absorbance (OD) at 450 nm was measured on a plate reader and this was plotted against the test antibody concentration.
as §1

| Kd [1] | koff [1] | kon [1] | further results | Binder |
| --- | --- | --- | --- | --- |
| 600 pM | 3.28e-05 s⁻¹ | 54700 M⁻¹ s⁻¹ | – | chimeric anti-endoglin antibody (TRC105) (antibody, V domains shown, also called chimeric anti-CD105; c-SN6j) VH: EVKLEESGGGLVQPGGSMKLSCAASGFTFSDAWMDWVRQSPEKGLEWVAEIRSKASNHATYYAESVKGRFTISRDDSKSSVYLQMNSLRAEDTGIYYCTRWRRFFDSWGQGTTLTVSS VL: QIVLSQSPAILSASPGEKVTMTCRASSSVSYMHWYQQKPGSSPKPWIYATSNLASGVPVRFSGSGSGTSYSLTISRVEAEDAATYYCQQWSSNPLTFGAGTKLELK |
| – | – | – | binding result [2]: binds | M1043 antibody (antibody, rat IgG1, V domains shown, also called Antibody M1043; biotinylated M1043) VH: QVQLQQSGAELVKPGSSVKISCKASGYTFTSYDMHWIKQQPGNGLEWIGWIYPGNGNTKYNQKFNGKATLTADKSSSTAYMQLSSLTSEDSAVYFCARGKFGVGDYWGQGVMVTVSS VL: DTVLTQSPALAVSPGERVSISCRASEGVNSYMHWYQQKPGQQPKLLIYIASNLASGVPARFSGSGSGTDFTLTIDPVEADDTATYFCQQSWNDPYTFGAGTKLELKR |
| – | – | – | binding result [3]: binds | mouse BMP9 (R&D Systems, Cat. No. 5566-BP-010) (ligand, UniProt Q9WV56 319-428, looked up) STGASSHCQKTSLRVNFEDIGWDSWIIAPKEYDAYECKGGCFFPLADDVTPTKHAIVQTLVHLKFPTKVGKACCVPTKLSPISILYKDDMGVPTLKYHYEGMSVAECGCR |
| – | – | – | IC50 [4]: 14600 pM | human BMP9 (R&D Systems Cat. No. 3209-BP-010) (ligand, UniProt Q9UK05 320-429, looked up) SAGAGSHCQKTSLRVNFEDIGWDSWIIAPKEYEAYECKGGCFFPLADDVTPTKHAIVQTLVHLKFPTKVGKACCVPTKLSPISVLYKDDMGVPTLKYHYEGMSVAECGCR |
| – | – | – | EC50 [5]: 0.046 µg/mL; IC50 [6]: 1700 pM | TRC205 antibody (antibody, IgG4, V domains shown, Humanized and deimmunized IgG4; also called biotinylated TRC205; unlabelled TRC205) VH: EVQLVESGGGLVKPGGSLRLSCAASGFTFSDAWMDWVRQAPGKGLEWVGEARSKASNHATYYAESVKGRFTISRDDSKNTLYLQMNSLKTEDTAVYYCTRWRRFFDSWGQGTLVTVSS VL: DIQMTQSPSSLSASVGDRATITCRASSSVSYMHWYQQKPGKAPKPWAYATSNLASGVPSRFSGSGSGTDYTLTISSLQPEDFATYYCQQWSSNPLTFGGGTKVEIK |
| 533 pM | 3.41e-05 s⁻¹ | 64000 M⁻¹ s⁻¹ | – | humanized/deimmunized anti-endoglin antibody VK1AAVH1R (antibody, human IgG1, V domains shown) VH: EVQLVESGGGLVKPGGSLRLSCAASGFTFSDAWMDWVRQAPGKGLEWVGEIRSRASNHATYYAESVKGRFTISRDDSKNTLYLQMNSLKTEDTAVYYCTRWRRFFDSWGQGTLVTVSS VL: DIQMTQSPSSLSASVGDRATITCRASSSVSYMHWYQQKPGKAPKPWAYATSNLASGVPSRFSGSGSGTDYTLTISSLQPEDFATYYCQQWSSNPLTFGGGTKVEIK |
| 706 pM | 3.25e-05 s⁻¹ | 46000 M⁻¹ s⁻¹ | – | humanized/deimmunized anti-endoglin antibody VK1AAVH1A2 (antibody, V domains shown, It has the same variable domains as TRC205, which is IgG4) VH: EVQLVESGGGLVKPGGSLRLSCAASGFTFSDAWMDWVRQAPGKGLEWVGEARSKASNHATYYAESVKGRFTISRDDSKNTLYLQMNSLKTEDTAVYYCTRWRRFFDSWGQGTLVTVSS VL: DIQMTQSPSSLSASVGDRATITCRASSSVSYMHWYQQKPGKAPKPWAYATSNLASGVPSRFSGSGSGTDYTLTISSLQPEDFATYYCQQWSSNPLTFGGGTKVEIK |
| – | – | – | binding result [7]: binds | VK2SAVH1S (antibody, V domains shown, humanized/deimmunized anti-endoglin antibody variant) VH: EVQLVESGGGLVKPGGSLRLSCAASGFTFSDAWMDWVRQAPGKGLEWVSEIRSKASNHATYYAESVKGRFTISRDDSKNTLYLQMNSLKTEDTAVYYCTRWRRFFDSWGQGTLVTVSS VL: DIQLTQSPSSLSASVGDRVTISCRASSSVSYMHWYQQKPGKAPKPWAYATSNLASGVPSRFSGSGSGTDYTLTISSLQPEDFATYYCQQWSSNPLTFGGGTKVEIK |
| 850 pM | 3.03e-05 s⁻¹ | 35600 M⁻¹ s⁻¹ | – | humanized/deimmunized anti-endoglin antibody VK1AAVH1Q (antibody, human IgG1, V domains shown) VH: EVQLVESGGGLVKPGGSLRLSCAASGFTFSDAWMDWVRQAPGKGLEWVGEIRSQASNHATYYAESVKGRFTISRDDSKNTLYLQMNSLKTEDTAVYYCTRWRRFFDSWGQGTLVTVSS VL: DIQMTQSPSSLSASVGDRATITCRASSSVSYMHWYQQKPGKAPKPWAYATSNLASGVPSRFSGSGSGTDYTLTISSLQPEDFATYYCQQWSSNPLTFGGGTKVEIK |
| – | – | – | binding result [7]: binds | VK2SSVH1S (antibody, V domains shown, humanized/deimmunized anti-endoglin antibody variant) VH: EVQLVESGGGLVKPGGSLRLSCAASGFTFSDAWMDWVRQAPGKGLEWVSEIRSKASNHATYYAESVKGRFTISRDDSKNTLYLQMNSLKTEDTAVYYCTRWRRFFDSWGQGTLVTVSS VL: DIQLTQSPSSLSASVGDRVTISCRASSSVSYMHWYQQKPGKAPKPWIYASSNLASGVPSRFSGSGSGTDYTLTISSLQPEDFATYYCQQWSSNPLTFGGGTKVEIK |
| – | – | – | binding result [7]: binds | VK2SSVH1Q (antibody, V domains shown, humanized/deimmunized anti-endoglin antibody variant) VH: EVQLVESGGGLVKPGGSLRLSCAASGFTFSDAWMDWVRQAPGKGLEWVGEIRSQASNHATYYAESVKGRFTISRDDSKNTLYLQMNSLKTEDTAVYYCTRWRRFFDSWGQGTLVTVSS VL: DIQLTQSPSSLSASVGDRVTISCRASSSVSYMHWYQQKPGKAPKPWIYASSNLASGVPSRFSGSGSGTDYTLTISSLQPEDFATYYCQQWSSNPLTFGGGTKVEIK |
